T1: human CD84 on cells (human) (UniProt Q9UIB8)
T1 sequence (looked up): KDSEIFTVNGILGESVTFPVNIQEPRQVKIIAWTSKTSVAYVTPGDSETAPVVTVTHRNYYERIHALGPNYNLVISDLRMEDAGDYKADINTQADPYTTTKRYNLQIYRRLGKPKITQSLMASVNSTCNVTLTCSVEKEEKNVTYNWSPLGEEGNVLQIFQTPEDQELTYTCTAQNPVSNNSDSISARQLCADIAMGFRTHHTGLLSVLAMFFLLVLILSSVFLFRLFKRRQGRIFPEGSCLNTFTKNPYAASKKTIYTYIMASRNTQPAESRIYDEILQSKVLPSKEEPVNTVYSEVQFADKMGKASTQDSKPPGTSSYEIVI

T2: Human CD84 produced by mammalian cells (human) (UniProt Q9UIB8)
T2 sequence (looked up): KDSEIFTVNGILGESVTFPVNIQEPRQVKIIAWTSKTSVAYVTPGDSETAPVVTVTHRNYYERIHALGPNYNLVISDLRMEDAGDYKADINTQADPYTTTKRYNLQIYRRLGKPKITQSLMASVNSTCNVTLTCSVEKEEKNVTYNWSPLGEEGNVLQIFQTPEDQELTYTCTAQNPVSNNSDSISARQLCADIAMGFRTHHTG


Key:
[1] = target: T1, human CD84 on cells (human); experiment: flow cytometry, hybridoma supernatant at equal antibody concentration, monocytes
[2] = target: T1, human CD84 on cells (human); experiment: flow cytometry, hybridoma supernatant at equal antibody concentration, Ramos cells
[3] = target: T1, human CD84 on cells (human); experiment: flow cytometry, hybridoma supernatant at equal antibody concentration, Raji cells
[4] = target: T1, human CD84 on cells (human); experiment: flow cytometry, hybridoma supernatant at equal antibody concentration, 300.19-CD84+ cells
[5] = target: T1, human CD84 on cells (human); experiment: flow cytometry, hybridoma supernatant at equal antibody concentration, lymphocytes
[6] = target: T2, Human CD84 produced by mammalian cells (human); experiment: monoclonal phage ELISA, plate coated with CD84 antigen, anti-phage HRP antibody

| Monocyte binding [1] [%] | Ramos binding [2] [%] | Raji binding [3] [%] | 300.19-CD84 binding [4] [%] | Lymphocyte binding [5] [%] | ELISA signal on antigen (Ag), read at 450 nm (absorbance at 450 nm) [6] | Binder |
| --- | --- | --- | --- | --- | --- | --- |
| 78.2 | 78.6 | 99.5 | 99 | 28.7 |  | GYCD84.2.32 (antibody, mouse IgG1, V domains shown) VH: EVQLQQSGPELEKPGASVKISCKASGYSFTGYNMNWVKQSNGKSLEWIGNIDPYYGGTNYNQKFKGKATLTVDKSSSTAYMQLKSLTSEDSAVYYCARGLLSGSFPYWGQGTLVTVSA VL: DIQMTQSPASLSASVGETVTITCRASENIYSYLAWYQQKQGKSPQLLVYNAKTLAEGVPSRFSGSGSGTQFSLKINSLHPEDFGSYFCQHHYGSPLTFGAGTKLEVK |
| 64.4 | 59 | 91.4 | 92.6 | 19 |  | GYCD84.1-7 (antibody, mouse IgG1, V domains shown) VH: QVTLKESGPGILQPSQTLSLTCSFSGFSLSTSGMGVGWIRQPSGKGLEWLAHIWWDDVKRYNPALKSRLTISKDTSSSQVFLKIASVDTADTATYYCARMRTSYYFDYWGQGTTLTVSS VL: DIQMTQSPASLSASVGETVTITCRASENIFSSLAWYQQRQGKSPQLLVYNAKTLAEGVPSRFSGSGSGTQFSLKINSLQPEDFGSYYCQHHYATPFTFGSGTKLEIK |
| 41.3 | 31.2 | 30.3 | 93.9 | 13.6 |  | GYCD84.1-108 (antibody, mouse IgG2a, V domains shown) VH: QVQLQQSGAELVRPGTSVKMSCKAAGYTFTNYWIGWVRQRPGHGLEWIGDIYPGGGYTNYNENFKGKATLTADTSSSTAYMQLSSLTSEDSAIYYCARSTTYYSSYWCFDVWGPGTTVTVSS VL: DIVMTQSPSSLSVSAGEKVTMSCKSSQSLLNSGNQANYLAWYQQKPGQPPKLLINGASTRESGVPDRFTGSGSGTDFTLTISSVQAEDLAVYYCQNDHSYPFTFGSGTKLEIK |
| 64.8 | 35.1 | 73.9 | 93.2 | 26.8 |  | GYCD84.5.171 (antibody, mouse IgG1, V domains shown) VH: EVQLVESGGGLVQPKGSLKLACAASGFTFNIYAMNWVRQAPGKGLEWVARIRSKSNNYARFYADSVKDRFTISRDDSQSMLYLQMNNLKTEDTAMYYCVRPLRSYFSMDYWGQGTSVTVSS VL: SIVMTQSPKSMSMSVGERVTLSCKASENVDTYVSWYQQKPEQSPKLLIYGASNRYTGVPDRFTGSGSATDFTLTISSVKAEDLADYHCGQTYSYPWTFGGGTKLEIK |
| 77.5 | 66.3 | 97.5 | 96.3 | 25.4 |  | GYCD84.2.27 (antibody, mouse IgG1, V domains shown) VH: QVTLKESGPGILQPSQTLSLTCSFSGFSLTTSGMGVGWIRQPSGKGLEWLAHIWWDDVKRYNPALKSRLTISKDTSSSQVFLKIASVDTADTASYYCARMSTSYYFDYWGQGTTLTVSS VL: DIVMTQSHKFMSTSLGDRVSISCKASQSLFTSVAWYQQKPGQSPKLLIYSASYRYTGVPDRFTGSGSGTDFTFTISSVQAEDLAVYYCQQHYSSPFTFGSGTKLGIK |
|  |  |  |  |  | 2.4 | R3-G7 (scFv) scFv: QVQLVESGGGVVQPGRSLRLSCTASGFTFSSYPMHWVRQAPGKGLEWVAAISYHGRNKFYADSVKGRFTISRDDLRSTLYLQMNNLKADDTAVYSCARDRDATPGGTGVGNHGMAVWGQGTTVTVSSGGGGSGGGGSGGGGSGGGGASEIVLTQSPLSLPVTPGEPASISCKSSQSLLHSSGYNYLDWYLQKPGQSPQLLIHMGSNRASGVPARFSGSGSGTDFTLRISRVEAEDVGVYYCMQGLQTPPTFGGGTKLEIK |
| 72 | 73.4 | 97.6 | 92.5 | 24.4 |  | 152-1D5 (antibody, mouse IgG1, V domains shown) VH: QVQLQQPGAEVVQPGTSVKLSCKASGYNFTNYWINWVKLRPGQGLEWIGDIYPVSGTTNYNEKFKRKATLTVDTSSSTGNMQLSSLASEDSALYYCASGTGRFAYWGQGTLVTVSA VL: DIVLTQSPASLAVSLGQRATISCRASQSVSTSSYSYMHWYQQKPGQPPKLLIKFASNLESGVPARFSGSGSGTDFTLNIHPVEEEDTATYYCQHSWEIPYTFGGGTKLEIK |
|  |  |  | 97.7 |  |  | GYCD84.1-97 (antibody, mouse IgG2a, V domains shown) VH: QVQLQQPGAELVKPGTSVKLSCKASGYNFTSYWINWVKLRPGQGLEWIGDIYLGSGSTNYNEKFKSKATLTVDTSSSSAYMQLSSLVSEDSALYYCATSGGYLGYWGQGTTLTVSS VL: DIVLTQSPASLAVSLGQRATISCRASQSVSTSSYSYMHWYQQKPGQPPKLLIKFASNLESGVPARFSGSGSGTDFTLNIHPVEEEDTATYYCQHSWEIPYTFGGGTKLEIK |
| 76.1 | 80.2 | 99.9 | 98.1 | 28.7 |  | GYCD84.1-226 (antibody, mouse IgG1, V domains shown) VH: QVQLQQPGAELVKPGTSVKLSCKASGYNFTRYWINWVKLRPGQGLEWIGDIYPGSGSTNYNEKFKSKATLTVDTSSSTAYMQLSRLASEDSALYYCARDTTIAYWGQGTLVTVSA VL: DIVLTQSPTSLAVSLGQRATISCRASQSVTTSRYSYMHWYQQKPGQPPKLLIKFASNLESGVPARFSGSGSGTDFTLNIHPVEEEDTATYYCQHSWEIPYTFGGGTKLEIK |
| 72.7 | 91.3 | 99.1 | 83 | 24.9 |  | GYCD84.3.89 (antibody, mouse IgG1, V domains shown) VH: EVKLLESGGGLVQPGGSLKLSCAASGFGFSRSWMSWVRQAPGKGLEWIGEINPDSSTINYTPSLKDKFIISRDNAKNTLFLQMSKVRSEDTALYYCATFYDGYSIYWYFDVWGAGTTVTVSS VL: DVLMTQTPLSLPVSLGDQASISCRSSQSIVHSNGDTYLEWYLQKPGQSPKLLIYKVSNRFSGVPDRFSGSGSGTDFTLKISRVEAEDLGVYYCFQGSHVPRTFGGGTKLEIK |
|  |  |  | 94.2 |  |  | GYCD84.1-207 (antibody, mouse IgG1, V domains shown) VH: EVKLLESGGGLVQPGGSLKLSCAASGFDFSRYWMSWVRQAPGKGLEWIGEINPDSSTINYTPSLKDKFIISRDNAKNTLYLQMSKVRSEDTALYYCARPGPTVVATYWYFDVWGAGTTVTVSS VL: DVLMTQTPLSLPVSLGDQASISCRSSQSIVHSNGNTYLEWYLQKPGQSPKLLIYKVSSRFSGVPDRFSGSASGTDFTLKISRVEAEDLGVYYCFQGSHVPRTFGGGTKLEIK |
|  |  |  |  |  | 0.696 | R3-H3 (scFv) scFv: EVQLVESGGGLVQPGGSLRLSCAASGFTFSDNAMSWVRQAPGKGLEWVSAISGTGRTTYYADSVKGRFTISRDNSKNTLYLQMNSLRAEDTAVYYCAKWDCSDGRCYWAYWGQGTLVTVSSGGGGSGGGGSGGGGSGGGGASEIVLTQSPLSLPVTLGQPASISCRSSQSLVYSDGDTYLNWFQQRPGQSPRRLIYKVSNRDSGVPDRFSGSGSGTDFTLKISRVEAEDVGVYYCMQGTHWPPNTFGQGTRLEIK |
| 53.9 | 28.3 | 45.9 | 93.5 | 16.6 |  | GYCD84.3.298 (antibody, mouse IgG1, V domains shown) VH: QVTLKESGPGILQPSQTLSLTCSFSGFSLSTSGMGVGWIRQPSGKGLEWLAHIWWDDVKRYNPALRSRLTISKDTSSSQVFLNIASVDTADTATYYCTRIAVTYFFDFWGQGTTLTVSS VL: DIQMTQSPASLSASVGETVTITCRASENIFSSFAWYQQKRGRSPQLLVYNARTLAEGVPSRFSGSGSGTQFSLKINSLQPEDFGTYFCQHHYASPFTFGSGTELGVK |

Reference: patent publication EP4209511A1
